{
  "source": "patent US20160051694A1",
  "about": "(AGENSYS, published 2016)",
  "key": {"[1]": {"molecular_target": "T1, CD37 (Leukocyte Antigen CD37, Tetraspanin-26) on cells (human, UniProt P11049 1-281)", "T1 construct": "In the assays it is the endogenous CD37 of human cancer cell lines, of AML patient PBMC and of patient tumor sections, or CD37 on recombinant 293T cells; also called CD37 antigen; CD37 expressing cells", "T1 sequence": "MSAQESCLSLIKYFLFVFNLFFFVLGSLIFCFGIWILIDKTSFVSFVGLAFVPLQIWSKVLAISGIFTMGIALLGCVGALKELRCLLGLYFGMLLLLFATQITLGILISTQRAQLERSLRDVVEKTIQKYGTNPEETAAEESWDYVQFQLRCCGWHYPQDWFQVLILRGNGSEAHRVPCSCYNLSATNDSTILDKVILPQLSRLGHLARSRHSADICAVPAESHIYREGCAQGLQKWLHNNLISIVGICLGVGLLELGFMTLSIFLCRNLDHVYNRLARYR", "assay": "FACS, BDCM cells (AML); ratio to isotype control", "procedure": "(§1) HvCD37-6b15.1.1 was tested for binding to different NHL, CLL and AML cell lines (See, Table VI) grown in-vitro. HvCD37-6b15.1.1 and an Isotype matched control antibody were biotinylated using NHS LC biotin. In vitro cancer lines growing exponentially were used for all experiments. Briefly, cells were harvested by and washed by centrifugation. Antibodies were diluted to 5 μg/mL final concentration and co-incubated with cells at 4° C. for 1 hour. At the end of the incubation, cells were washed and incubated with secondary detection Streptavidin-PE antibody at a final 1:400 (1.25 μg/mL) dilution for 1 hr at 4° C. After washing un-bound secondary antibody, cells were analyzed by FACS, a total of 10,000 events were collected per sample. Data files were analyzed using FlowJo and Geometric Mean Fluorescence was determined and reported. Fluorescense ratio was calculated as follows: Geo mean AGS67C/Geo Mean Isotype control=MFR, a measure of fold expression above Isotype control."}, "[2]": {"molecular_target": "T1, CD37 (Leukocyte Antigen CD37, …)", "assay": "FACS, Mino cells (MCL); ratio to isotype control", "procedure": "as §1"}, "[3]": {"molecular_target": "T1, CD37 (Leukocyte Antigen CD37, …)", "assay": "FACS, EoL-1 cells (AML); ratio to isotype control", "procedure": "as §1"}, "[4]": {"molecular_target": "T1, CD37 (Leukocyte Antigen CD37, …)", "assay": "FACS, HL-60 cells (AML); ratio to isotype control", "from_the_text": "(§2) To express HvCD37-6b15.1.1 MAb recombinantly in transfected cells, HvCD37-6b15.1.1 MAb variable heavy and light chain sequences were cloned upstream of the human heavy chain IgG2 and human light chain Igκ constant regions respectively. The complete HvCD37-6b15.1.1 MAb human heavy chain and light chain cassettes were cloned downstream of the CMV promoter/enhancer in a cloning vector. A polyadenylation site was included downstream of the MAb coding sequence. The recombinant HvCD37-6b15.1.1 MAb expressing construct was transfected into CHO cells. The HvCD37-6b15.1.1 MAb secreted from recombinant cells was evaluated for binding to human cancer cell lines expressing CD37 by FACS (See, Table VI). Binding was detected by flow cytometry.\nas §1, with “Briefly, cells were harvested by and washed by centrifugation. Antibodies were diluted to 5 μg/mL final concentration and co-incubated with cells at 4° C. for 1 hour. At the end of the incubation, cells were washed and incubated with secondary detection Streptavidin-PE antibody at a final 1:400 (1.25 μg/mL) dilution for 1 hr at 4° C.” left out"}, "[5]": {"molecular_target": "T1, CD37 (Leukocyte Antigen CD37, …)", "assay": "FACS, JVM-3 cells (CLL); ratio to isotype control", "procedure": "as §1"}, "[6]": {"molecular_target": "T1, CD37 (Leukocyte Antigen CD37, …)", "assay": "FACS, REC-1 cells (MCL); ratio to isotype control", "from_the_text": "as §2\nas §1, with “Briefly, cells were harvested by and washed by centrifugation. Antibodies were diluted to 5 μg/mL final concentration and co-incubated with cells at 4° C. for 1 hour. At the end of the incubation, cells were washed and incubated with secondary detection Streptavidin-PE antibody at a final 1:400 (1.25 μg/mL) dilution for 1 hr at 4° C.” left out"}, "[7]": {"molecular_target": "T1, CD37 (Leukocyte Antigen CD37, …)", "assay": "FACS, THP-1 cells (AML); ratio to isotype control", "from_the_text": "as §2\nas §1, with “Briefly, cells were harvested by and washed by centrifugation. Antibodies were diluted to 5 μg/mL final concentration and co-incubated with cells at 4° C. for 1 hour. At the end of the incubation, cells were washed and incubated with secondary detection Streptavidin-PE antibody at a final 1:400 (1.25 μg/mL) dilution for 1 hr at 4° C.” left out"}, "[8]": {"molecular_target": "T1, CD37 (Leukocyte Antigen CD37, …)", "assay": "FACS, MOLT-4 cells (ALL); ratio to isotype control", "procedure": "as §1"}, "[9]": {"molecular_target": "T1, CD37 (Leukocyte Antigen CD37, …)", "assay": "FACS, RS4-11 cells (ALL); ratio to isotype control", "from_the_text": "as §2\nas §1, with “Briefly, cells were harvested by and washed by centrifugation. Antibodies were diluted to 5 μg/mL final concentration and co-incubated with cells at 4° C. for 1 hour. At the end of the incubation, cells were washed and incubated with secondary detection Streptavidin-PE antibody at a final 1:400 (1.25 μg/mL) dilution for 1 hr at 4° C.” left out"}, "[10]": {"molecular_target": "T1, CD37 (Leukocyte Antigen CD37, …)", "assay": "FACS, MOLM-13 cells (AML); ratio to isotype control", "procedure": "as §1"}, "[11]": {"molecular_target": "T1, CD37 (Leukocyte Antigen CD37, …)", "assay": "FACS, MV-4-11 cells (AML); ratio to isotype control", "procedure": "as §1"}, "[12]": {"molecular_target": "T1, CD37 (Leukocyte Antigen CD37, …)", "assay": "FACS, Kasumi-1 cells (AML); ratio to isotype control", "from_the_text": "as §2\nas §1, with “Briefly, cells were harvested by and washed by centrifugation. Antibodies were diluted to 5 μg/mL final concentration and co-incubated with cells at 4° C. for 1 hour. At the end of the incubation, cells were washed and incubated with secondary detection Streptavidin-PE antibody at a final 1:400 (1.25 μg/mL) dilution for 1 hr at 4° C.” left out"}, "[13]": {"molecular_target": "T1, CD37 (Leukocyte Antigen CD37, …)", "assay": "FACS, Raji cells (Burkitt's); ratio to isotype control", "procedure": "as §1"}, "[14]": {"molecular_target": "T1, CD37 (Leukocyte Antigen CD37, …)", "assay": "FACS, SU-DHL-4 cells (DLBCL); ratio to isotype control", "procedure": "as §1"}, "[15]": {"molecular_target": "T1, CD37 (Leukocyte Antigen CD37, …)", "assay": "FACS, Daudi cells (Burkitt's); ratio to isotype control", "from_the_text": "as §2\nas §1, with “Briefly, cells were harvested by and washed by centrifugation. Antibodies were diluted to 5 μg/mL final concentration and co-incubated with cells at 4° C. for 1 hour. At the end of the incubation, cells were washed and incubated with secondary detection Streptavidin-PE antibody at a final 1:400 (1.25 μg/mL) dilution for 1 hr at 4° C.” left out"}, "[16]": {"molecular_target": "T1, CD37 (Leukocyte Antigen CD37, …)", "assay": "FACS, Ramos cells (Burkitt's); ratio to isotype control", "from_the_text": "as §2\nas §1, with “Briefly, cells were harvested by and washed by centrifugation. Antibodies were diluted to 5 μg/mL final concentration and co-incubated with cells at 4° C. for 1 hour. At the end of the incubation, cells were washed and incubated with secondary detection Streptavidin-PE antibody at a final 1:400 (1.25 μg/mL) dilution for 1 hr at 4° C.” left out"}, "[17]": {"molecular_target": "T1, CD37 (Leukocyte Antigen CD37, …)", "assay": "FACS, WSU-DLCL-2 cells (DLBCL); ratio to isotype control", "from_the_text": "as §2\nas §1, with “Briefly, cells were harvested by and washed by centrifugation. Antibodies were diluted to 5 μg/mL final concentration and co-incubated with cells at 4° C. for 1 hour. At the end of the incubation, cells were washed and incubated with secondary detection Streptavidin-PE antibody at a final 1:400 (1.25 μg/mL) dilution for 1 hr at 4° C.” left out"}, "[18]": {"molecular_target": "T1, CD37 (Leukocyte Antigen CD37, …)", "assay": "FACS, DOHH-2 cells (Follicular); ratio to isotype control", "from_the_text": "as §2\nas §1, with “Briefly, cells were harvested by and washed by centrifugation. Antibodies were diluted to 5 μg/mL final concentration and co-incubated with cells at 4° C. for 1 hour. At the end of the incubation, cells were washed and incubated with secondary detection Streptavidin-PE antibody at a final 1:400 (1.25 μg/mL) dilution for 1 hr at 4° C.” left out"}, "[19]": {"molecular_target": "T1, CD37 (Leukocyte Antigen CD37, …)", "assay": "FACS, Mino XCL cells (MCL, in-vivo xenograft); ratio to isotype control"}, "[20]": {"molecular_target": "T1, CD37 (Leukocyte Antigen CD37, …)", "assay": "FACS, KG-1 cells (AML); ratio to secondary detection (high isotype background)", "from_the_text": "as §2\nas §1, with “At the end of the incubation, cells were washed and incubated with secondary detection Streptavidin-PE antibody at a final 1:400 (1.25 μg/mL) dilution for 1 hr at 4° C.” left out, “Fluorescense ratio was calculated as follows: Geo mean AGS67C/Geo Mean Isotype control=MFR, a measure of fold expression above Isotype control.” left out"}, "[21]": {"molecular_target": "T1, CD37 (Leukocyte Antigen CD37, …)", "assay": "FACS, Ramos RR XCL cells (Burkitt's, rituxan resistant); ratio to isotype control", "procedure": "as §1"}, "[22]": {"molecular_target": "T1, CD37 (Leukocyte Antigen CD37, …)", "assay": "FACS, Hel 92.1 cells (AML); ratio to secondary detection (high isotype background)", "procedure": "as §1, with “Fluorescense ratio was calculated as follows: Geo mean AGS67C/Geo Mean Isotype control=MFR, a measure of fold expression above Isotype control.” left out"}, "[23]": {"molecular_target": "T1, CD37 (Leukocyte Antigen CD37, …)", "assay": "FACS, Granta-519 cells (MCL); ratio to secondary detection (high isotype background)", "from_the_text": "as §2\nas §1, with “At the end of the incubation, cells were washed and incubated with secondary detection Streptavidin-PE antibody at a final 1:400 (1.25 μg/mL) dilution for 1 hr at 4° C.” left out, “Fluorescense ratio was calculated as follows: Geo mean AGS67C/Geo Mean Isotype control=MFR, a measure of fold expression above Isotype control.” left out"}, "[24]": {"molecular_target": "T1, CD37 (Leukocyte Antigen CD37, …)", "assay": "FACS on cells expressing CD37"}},
  "data": [
    {"binder": "HvCD37-6b15.1.1 MAb (recombinant, expressed in CHO cells, human IgG2 / kappa) (antibody, V domains shown, typical heavy chain of purified CHO material: N-terminal glutamine modified to pyroglutamate and C-terminal lysine deleted; biotinylated with NHS LC biotin for the FACS assays, Fully human antibody: human variable regions on human IgG2 and human kappa constant regions, made in CHO cells (ATCC PTA-120464); also called HvCD37-6b15.1.1 IgG2; AGS67C) VH: QVQLQQWGAGLLKPSETLSLTCAVYGGSFSPYYWSWIRQPPGKGLEWIGEINHSGSTNYNPSLKSRVTISVDTSKNQFSLKLSSVTAADTAVYYCARRAGDFDYWGQGTLVTVSS VL: not shown", "values": [
      {"measurement": "MFR (Mean Florescence ratio)", "setting": "[1]", "value": 64},
      {"measurement": "MFR (Mean Florescence ratio)", "setting": "[2]", "value": 301},
      {"measurement": "MFR (Mean Florescence ratio)", "setting": "[3]", "value": 3},
      {"measurement": "MFR (Mean Florescence ratio)", "setting": "[4]", "value": 5},
      {"measurement": "MFR (Mean Florescence ratio)", "setting": "[5]", "value": 122},
      {"measurement": "MFR (Mean Florescence ratio)", "setting": "[6]", "value": 341},
      {"measurement": "MFR (Mean Florescence ratio)", "setting": "[7]", "value": 23},
      {"measurement": "MFR (Mean Florescence ratio)", "setting": "[8]", "value": 3},
      {"measurement": "MFR (Mean Florescence ratio)", "setting": "[9]", "value": 26},
      {"measurement": "MFR (Mean Florescence ratio)", "setting": "[10]", "value": 6},
      {"measurement": "MFR (Mean Florescence ratio)", "setting": "[11]", "value": 8},
      {"measurement": "MFR (Mean Florescence ratio)", "setting": "[12]", "value": 9},
      {"measurement": "MFR (Mean Florescence ratio)", "setting": "[13]", "value": 135},
      {"measurement": "MFR (Mean Florescence ratio)", "setting": "[14]", "value": 662},
      {"measurement": "MFR (Mean Florescence ratio)", "setting": "[15]", "value": 39},
      {"measurement": "MFR (Mean Florescence ratio)", "setting": "[16]", "value": 534},
      {"measurement": "MFR (Mean Florescence ratio)", "setting": "[17]", "value": 554},
      {"measurement": "MFR (Mean Florescence ratio)", "setting": "[18]", "value": 581},
      {"measurement": "MFR (Mean Florescence ratio)", "setting": "[19]", "value": 316},
      {"measurement": "MFR (Mean Florescence ratio)", "setting": "[20]", "value": 10},
      {"measurement": "MFR (Mean Florescence ratio)", "setting": "[21]", "value": 140},
      {"measurement": "MFR (Mean Florescence ratio)", "setting": "[22]", "value": 28},
      {"measurement": "MFR (Mean Florescence ratio)", "setting": "[23]", "value": 372}
    ]},
    {"binder": "HvCD37-6b15.1.1 MAb purified from hybridoma (VelocImmune mouse) (antibody, V domains shown, also called HvCD37-6b15.1.1 purified from hybridoma; MAb material derived from hybridoma cells) VH: QVQLQQWGAGLLKPSETLSLTCAVYGGSFSPYYWSWIRQPPGKGLEWIGEINHSGSTNYNPSLKSRVTISVDTSKNQFSLKLSSVTAADTAVYYCARRAGDFDYWGQGTLVTVSS VL: not shown", "values": [
      {"measurement": "binding result", "setting": "[24]", "value": "binds"}
    ]}
  ]
}
